Source: paper PMC5839545 (2018)

Target: CENP-T (Homo sapiens, UniProt Q96BT3)
Assay: SW-FCCS

Sequence of CENP-T (Q96BT3 whole entry): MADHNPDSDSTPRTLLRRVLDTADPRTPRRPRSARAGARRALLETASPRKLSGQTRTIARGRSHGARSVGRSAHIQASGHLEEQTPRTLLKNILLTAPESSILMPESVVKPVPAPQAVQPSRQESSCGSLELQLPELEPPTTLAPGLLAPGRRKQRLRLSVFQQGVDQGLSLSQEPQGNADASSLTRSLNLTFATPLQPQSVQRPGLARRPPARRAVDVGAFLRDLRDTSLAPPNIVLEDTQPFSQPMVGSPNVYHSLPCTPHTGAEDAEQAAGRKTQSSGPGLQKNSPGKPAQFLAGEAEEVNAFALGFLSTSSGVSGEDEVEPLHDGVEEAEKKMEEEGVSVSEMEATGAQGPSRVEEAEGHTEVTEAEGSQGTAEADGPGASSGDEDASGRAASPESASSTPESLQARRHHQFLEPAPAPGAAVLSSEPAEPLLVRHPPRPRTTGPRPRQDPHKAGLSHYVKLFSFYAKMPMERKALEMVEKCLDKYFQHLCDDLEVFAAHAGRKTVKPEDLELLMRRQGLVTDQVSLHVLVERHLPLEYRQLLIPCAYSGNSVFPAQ

Kd: 1.8 µM
B1: Spc24 (protein)
chain: MAAFRDIEEVSQGLLSLLGANRAEAQQRRLLGRHEQVVERLLETQDGAEKQLREILTMEKEVAQSLLNAKEQVHQGGVELQQLEAGLQEAGEEDTRLKASLLQLTRELEELKEIEADLERQEKEVDEDTTVTIPSAVYVAQLYHQVSKIEWDYECEPGMVKGIHHGPSVAQPIHLDSTQLSRKFISDYLWSLVDTEW
